The target of data set [1] is FL-hDicer (full-length human Dicer) (Homo sapiens, UniProt Q9UPY3 1-1922). The experiment in a line: filter binding.
The next data set has as its target T1, MBP-ATPase/hel (Homo sapiens, UniProt Q9UPY3 1-604).
T1 sequence: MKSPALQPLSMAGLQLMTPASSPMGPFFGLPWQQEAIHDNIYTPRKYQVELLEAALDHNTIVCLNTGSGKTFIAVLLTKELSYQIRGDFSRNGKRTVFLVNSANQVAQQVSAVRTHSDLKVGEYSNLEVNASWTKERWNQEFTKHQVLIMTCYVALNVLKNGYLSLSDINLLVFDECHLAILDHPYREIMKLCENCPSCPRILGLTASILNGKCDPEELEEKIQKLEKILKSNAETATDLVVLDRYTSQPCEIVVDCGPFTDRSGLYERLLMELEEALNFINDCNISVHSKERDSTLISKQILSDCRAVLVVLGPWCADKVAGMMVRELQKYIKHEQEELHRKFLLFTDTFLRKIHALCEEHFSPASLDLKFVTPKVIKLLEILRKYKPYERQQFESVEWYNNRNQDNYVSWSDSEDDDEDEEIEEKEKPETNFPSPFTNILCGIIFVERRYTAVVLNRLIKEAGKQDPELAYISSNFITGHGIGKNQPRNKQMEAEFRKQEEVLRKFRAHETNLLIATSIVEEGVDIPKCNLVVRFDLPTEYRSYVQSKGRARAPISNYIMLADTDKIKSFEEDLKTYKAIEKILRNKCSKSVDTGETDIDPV
The experiment in a line: filter binding.

Another data set addresses T2, DP (DUF283-PAZ) (Homo sapiens, UniProt Q9UPY3 605-1068).
T2 sequence: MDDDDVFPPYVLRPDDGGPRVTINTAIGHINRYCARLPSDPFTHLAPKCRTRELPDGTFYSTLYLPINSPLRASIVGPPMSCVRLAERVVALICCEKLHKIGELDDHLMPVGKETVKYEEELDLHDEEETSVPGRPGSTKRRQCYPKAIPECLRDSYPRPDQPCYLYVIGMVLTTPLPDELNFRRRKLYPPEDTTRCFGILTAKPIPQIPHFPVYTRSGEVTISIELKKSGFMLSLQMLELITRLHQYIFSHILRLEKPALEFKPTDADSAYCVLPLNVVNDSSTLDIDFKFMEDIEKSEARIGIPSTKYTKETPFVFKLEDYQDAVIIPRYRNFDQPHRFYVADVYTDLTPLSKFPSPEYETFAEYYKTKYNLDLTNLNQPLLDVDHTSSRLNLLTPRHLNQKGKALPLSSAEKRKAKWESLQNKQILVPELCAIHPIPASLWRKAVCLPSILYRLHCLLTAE
The experiment in a line: filter binding.

The target in data set [2] is T3, ATPase/helicase domain of human Dicer (1-604) fused with maltose-binding protein (human, UniProt Q9UPY3 1-604).
T3 sequence (looked up): T1 sequence
The experiment in a line: SEC. (Size exclusion chromatography separates by hydrodynamic size, large species first.)

In data set [3] the target is T4, MBP-ATPase/hel domain of human Dicer with a C-terminal hemagglutinin (HA) epitope tag (human, UniProt Q9UPY3 1-604).
T4 sequence (looked up): T1 sequence
The experiment in a line: co-IP.

Data set [4] addresses T5, hDcr-C (RNase IIIa, IIIb, dsRBD) (Homo sapiens, UniProt Q9UPY3 1235-1922).
T5 sequence: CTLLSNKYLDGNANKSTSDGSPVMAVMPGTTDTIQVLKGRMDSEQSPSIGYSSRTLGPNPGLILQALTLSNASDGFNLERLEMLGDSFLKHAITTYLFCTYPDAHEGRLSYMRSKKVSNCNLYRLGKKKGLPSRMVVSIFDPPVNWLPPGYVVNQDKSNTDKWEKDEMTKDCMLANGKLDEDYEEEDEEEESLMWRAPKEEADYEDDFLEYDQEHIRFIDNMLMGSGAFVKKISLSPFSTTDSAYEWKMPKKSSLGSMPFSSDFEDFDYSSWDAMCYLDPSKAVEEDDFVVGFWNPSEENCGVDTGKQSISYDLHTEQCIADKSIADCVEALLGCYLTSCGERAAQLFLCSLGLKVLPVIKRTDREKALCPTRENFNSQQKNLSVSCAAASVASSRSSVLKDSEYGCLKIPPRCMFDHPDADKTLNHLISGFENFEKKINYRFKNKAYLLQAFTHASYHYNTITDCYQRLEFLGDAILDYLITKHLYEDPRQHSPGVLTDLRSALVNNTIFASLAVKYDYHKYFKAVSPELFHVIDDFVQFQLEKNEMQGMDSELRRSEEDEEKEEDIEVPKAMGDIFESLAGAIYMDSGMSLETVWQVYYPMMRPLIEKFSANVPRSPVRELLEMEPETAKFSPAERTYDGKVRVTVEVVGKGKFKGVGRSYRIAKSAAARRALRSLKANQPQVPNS
The experiment in a line: filter binding.

The target of data set [5] is T6, human Dicer C-terminal fragment (hDcr-C: 1235-1922), bacterially expressed (human, UniProt Q9UPY3 1235-1922).
T6 sequence (looked up): T5 sequence
In words: SEC.

Chain of FL-hDicer (full-length human Dicer) (Q9UPY3 whole entry): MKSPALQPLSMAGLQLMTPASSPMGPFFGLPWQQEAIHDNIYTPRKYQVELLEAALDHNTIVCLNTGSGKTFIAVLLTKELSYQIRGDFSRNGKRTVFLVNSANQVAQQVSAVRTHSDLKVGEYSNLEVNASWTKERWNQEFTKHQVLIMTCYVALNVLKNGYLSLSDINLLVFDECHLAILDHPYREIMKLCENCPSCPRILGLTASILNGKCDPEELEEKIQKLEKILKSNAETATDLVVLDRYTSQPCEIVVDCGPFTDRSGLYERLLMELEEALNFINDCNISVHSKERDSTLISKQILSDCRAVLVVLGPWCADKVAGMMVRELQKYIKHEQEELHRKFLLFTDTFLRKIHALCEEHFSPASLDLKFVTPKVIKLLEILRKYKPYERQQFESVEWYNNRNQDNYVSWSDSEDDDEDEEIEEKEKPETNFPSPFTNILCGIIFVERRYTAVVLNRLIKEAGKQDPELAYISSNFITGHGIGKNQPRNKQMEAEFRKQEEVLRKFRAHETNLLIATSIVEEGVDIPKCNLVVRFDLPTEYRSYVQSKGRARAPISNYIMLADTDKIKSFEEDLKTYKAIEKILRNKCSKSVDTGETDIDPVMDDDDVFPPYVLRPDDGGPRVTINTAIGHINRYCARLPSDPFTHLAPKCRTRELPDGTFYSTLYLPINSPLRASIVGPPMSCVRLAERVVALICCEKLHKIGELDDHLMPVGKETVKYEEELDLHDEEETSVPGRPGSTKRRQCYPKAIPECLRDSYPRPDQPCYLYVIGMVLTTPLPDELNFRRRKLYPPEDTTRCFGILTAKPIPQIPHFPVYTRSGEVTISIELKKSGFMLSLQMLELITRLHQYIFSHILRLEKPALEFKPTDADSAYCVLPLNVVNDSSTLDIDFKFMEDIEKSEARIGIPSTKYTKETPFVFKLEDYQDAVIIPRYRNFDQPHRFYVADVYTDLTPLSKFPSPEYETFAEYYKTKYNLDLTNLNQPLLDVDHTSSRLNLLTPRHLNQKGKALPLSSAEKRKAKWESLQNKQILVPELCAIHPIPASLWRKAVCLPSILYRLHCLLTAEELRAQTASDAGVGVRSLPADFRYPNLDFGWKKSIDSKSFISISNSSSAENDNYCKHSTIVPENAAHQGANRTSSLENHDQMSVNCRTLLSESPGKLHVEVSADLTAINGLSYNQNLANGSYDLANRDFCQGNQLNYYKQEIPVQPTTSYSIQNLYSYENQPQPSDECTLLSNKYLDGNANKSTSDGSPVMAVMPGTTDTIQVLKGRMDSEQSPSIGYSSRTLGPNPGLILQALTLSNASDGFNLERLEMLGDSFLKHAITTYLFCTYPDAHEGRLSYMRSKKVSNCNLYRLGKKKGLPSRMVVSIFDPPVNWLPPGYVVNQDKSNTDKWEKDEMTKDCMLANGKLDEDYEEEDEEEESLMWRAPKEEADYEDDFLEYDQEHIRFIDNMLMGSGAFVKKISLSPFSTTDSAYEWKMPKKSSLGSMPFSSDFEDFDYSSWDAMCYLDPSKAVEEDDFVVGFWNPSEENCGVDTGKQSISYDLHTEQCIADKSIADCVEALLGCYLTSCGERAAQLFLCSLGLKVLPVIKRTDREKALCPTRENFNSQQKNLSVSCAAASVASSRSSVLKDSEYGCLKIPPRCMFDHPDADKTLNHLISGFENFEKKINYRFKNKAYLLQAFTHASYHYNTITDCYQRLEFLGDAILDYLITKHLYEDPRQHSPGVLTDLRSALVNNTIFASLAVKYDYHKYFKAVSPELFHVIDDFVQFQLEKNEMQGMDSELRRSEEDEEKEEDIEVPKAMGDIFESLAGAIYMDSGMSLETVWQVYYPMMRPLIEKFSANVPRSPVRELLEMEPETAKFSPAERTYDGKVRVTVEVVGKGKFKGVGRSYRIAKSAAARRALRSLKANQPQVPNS

B1: pre-hlet-7a-1 (structured_RNA)
RNA: UGAGGUAGUAGGUUGUAUAGUUUUAGGGUCACACCCACCACUGGGAGAUAACUAUACAAUCUACUGUCUUACC
As usually defined, the Kd is the constant that tells how readily two partners part at equilibrium. The low end stands for a tighter complex, the high end for a looser complex. B1: the Kd is 39 ± 5 nM in data set [1], 96 ± 10 nM with MBP-ATPase/hel and roughly 1000 nM with DP (DUF283-PAZ).

B2: 21ab (siRNA/product mimic) (dsRNA)
RNA 1: UAUACAAUGUGCUAGCUUUCU
RNA 2: AAAGCUAGCACAUUGUAUAGU
With B2, the Kd in data set [1] worked out at 144 ± 23 nM; in the data set with DP (DUF283-PAZ), 220 ± 40 nM.

B3: human TAR-RNA binding protein (hTRBP), the larger isoform TRBP2 (natural protein, UniProt Q15633-1 1-366, looked up)
chain: MSEEEQGSGTTTGCGLPSIEQMLAANPGKTPISLLQEYGTRIGKTPVYDLLKAEGQAHQPNFTFRVTVGDTSCTGQGPSKKAAKHKAAEVALKHLKGGSMLEPALEDSSSFSPLDSSLPEDIPVFTAAAAATPVPSVVLTRSPPMELQPPVSPQQSECNPVGALQELVVQKGWRLPEYTVTQESGPAHRKEFTMTCRVERFIEIGSGTSKKLAKRNAAAKMLLRVHTVPLDARDGNEVEPDDDHFSIGVGSRLDGLRNRGPGCTWDSLRNSVGEKILSLRSCSLGSLGALGPACCRVLSELSEEQAFHVSYLDIEELSLSGLCQCLVELSTQPATVCHGSATTREAARGEAARRALQYLKIMAGSK
Consider B3, for which the binding result in data set [2] and in data set [3] was “binds” each time.

B4: 37ab (dsRNA)
RNA 1: UGAGGUAGUAGGUUGUAUAGUUUGAAAGUUCACGAUU
RNA 2: UCGUGAACUUUCAAACUAUACAACCUACUACCUCAUU
On to B4, for which the Kd stood at 53 ± 8 nM in data set [1], 476 ± 30 nM with MBP-ATPase/hel, 200 ± 34 nM with DP (DUF283-PAZ) and 300 ± 40 nM in data set [4].

B5: human Dicer DUF283-PAZ fragment (DP: 605-1068) (domain or fragment, UniProt Q9UPY3 605-1068, looked up)
chain: T2 sequence
With B5, the binding result in data set [5] is given as “binds”.
